Consider 8 molecules from PMC10407285 (The Journal of Biological Chemistry, 2023).

Data set [1] addresses T1, Ca. Marinimicrobia bacterium SpeD (PIS27863) (Fidelibacterota bacterium CG08_land_8_20_14_0_20_45_22, UniProt A0A2H0XSF6).
T1 construct: self-processed pyruvoyl enzyme
Description: coupled CO2-release assay (NADH, A340), Michaelis-Menten fit. It is filed as biochemical, Candidatus Fidelibacterota bacterium. The following applies: 50 mM Hepes pH 7.7, 100 mM NaCl, 1 mM DTT, 26 °C; pyruvoyl-dependent decarboxylation. An excerpt: Marinimicrobia bacterium SpeD (PIS27863)

The target in data set [2] is T2, Ca. Diapherotrites archaeon SpeD homolog (PIN84875) (Candidatus Diapherotrites archaeon CG11_big_fil_rev_8_21_14_0_20_37_9, UniProt A0A2G9N1A6).
T2 construct: self-processed pyruvoyl enzyme
T2 sequence (A0A2G9N1A6 1-75 limits assumed): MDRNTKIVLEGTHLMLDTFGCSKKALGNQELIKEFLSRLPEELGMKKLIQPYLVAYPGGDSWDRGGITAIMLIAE
T2 sequence (A0A2G9N1A6 76-142 limits assumed): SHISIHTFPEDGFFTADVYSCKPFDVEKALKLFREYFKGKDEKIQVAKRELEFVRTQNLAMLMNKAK
The description is as above. The format is biochemical. The following applies: 50 mM Hepes pH 7.7, 100 mM NaCl, 1 mM DTT, 26 °C; pyruvoyl-dependent decarboxylation. The text has this: Diapherotrites archaeon SpeD homolog (PIN84875)

Data set [3] addresses T3, Ca. Woesearchaeota archaeon SpeD homolog (PIN80235) (Candidatus Woesearchaeota archaeon CG10_big_fil_rev_8_21_14_0_10_34_8, UniProt A0A2G9MN15).
T3 construct: self-processed pyruvoyl enzyme
The description is as above. The format is biochemical. The following applies: 50 mM Hepes pH 7.7, 100 mM NaCl, 1 mM DTT, 26 °C; pyruvoyl-dependent decarboxylation. An excerpt: Woesearchaeota archaeon SpeD homolog (PIN80235)

For data set [4], the system named is Ca. Peribacteria bacterium SpeD (OGJ64158). The following applies: 50 mM Hepes pH 7.7, 100 mM NaCl, 1 mM DTT, 26 °C; pyruvoyl-dependent decarboxylation.
Data set [5] has as its system Ca. Atribacteria bacterium SpeD2 (PIU25646). The following applies: 50 mM Hepes pH 7.7, 100 mM NaCl, 1 mM DTT, 26 °C; pyruvoyl-dependent decarboxylation.
For data set [6], the system named is Ca. Sumerlaeota bacterium SpeD2 (MBN1518199). The following applies: 50 mM Hepes pH 7.7, 100 mM NaCl, 1 mM DTT, 26 °C; pyruvoyl-dependent decarboxylation.
The target in data set [7] is T4, Ca. Electrothrix aarhusiensis SpeD homolog (RWX43081) (Candidatus Electrothrix aarhusensis, UniProt A0A3S3QFL2).
T4 construct: gene H206_03171
T4 sequence (A0A3S3QFL2 entry or part of it): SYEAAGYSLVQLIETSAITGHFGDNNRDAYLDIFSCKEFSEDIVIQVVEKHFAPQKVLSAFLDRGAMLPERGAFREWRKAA
T4 sequence (A0A3S3QFL2 entry or part of it): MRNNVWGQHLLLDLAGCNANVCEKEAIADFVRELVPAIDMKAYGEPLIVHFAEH
The following applies: 50 mM Hepes pH 7.7, 100 mM NaCl, 1 mM DTT, 26 °C; pyruvoyl-dependent decarboxylation.

Another data set deals with N=C(N)NCCC[C@H](N)C(=O)O. The data set is described as follows: purified protein. The following applies: 50 mM Hepes pH 7.7, 100 mM NaCl, 1 mM DTT, 26 °C, pyruvoyl-dependent decarboxylation.
Substrate in the data set “purified protein”: NCCC[C@H](N)C(=O)O
The data set is described as follows: purified protein. The following applies: 50 mM Hepes pH 7.7, 100 mM NaCl, 1 mM DTT, 26 °C, pyruvoyl-dependent decarboxylation.

Substrate in data set [8]: N=C(N)NCCC[C@H](N)C(=O)O
Description: coupled CO2-release assay (NADH, A340), Michaelis-Menten fit. It is filed as biochemical, Capsulimonas corticalis. The following applies: 50 mM Hepes pH 7.7, 100 mM NaCl, 1 mM DTT, 26 °C, pyruvoyl-dependent decarboxylation.

Substrate in data set [9]: N=C(N)NCCC[C@H](N)C(=O)O
Described as above. The format is biochemical, Tribonema minus. The following applies: 50 mM Hepes pH 7.7, 100 mM NaCl, 1 mM DTT, 26 °C, pyruvoyl-dependent decarboxylation.

T3 sequence (A0A2G9MN15 1-79 limits assumed): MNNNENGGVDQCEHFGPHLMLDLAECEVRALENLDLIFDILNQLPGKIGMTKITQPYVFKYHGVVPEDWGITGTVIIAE
T3 sequence (A0A2G9MN15 80-150 limits assumed): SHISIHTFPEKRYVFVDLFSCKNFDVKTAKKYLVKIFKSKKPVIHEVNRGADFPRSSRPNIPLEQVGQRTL
T1 sequence (A0A2H0XSF6 1-72 limits assumed): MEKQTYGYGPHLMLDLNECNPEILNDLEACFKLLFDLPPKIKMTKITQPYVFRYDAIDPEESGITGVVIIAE
T1 sequence (A0A2H0XSF6 73-131 limits assumed): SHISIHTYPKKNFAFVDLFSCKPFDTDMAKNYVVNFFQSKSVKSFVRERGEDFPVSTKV

Take `N=C(N)NCCC[C@H](N)C(=O)O` [L-arginine]: the Michaelis-Menten constant (Km) (as a rule, the substrate concentration at which the rate is half of its maximum) is 760 ± 50 µM in [1], 95 ± 19 µM in [2] and 350 ± 24 µM in [3].

Regarding `NCCC[C@H](N)C(=O)O` [L-ornithine], the Km in data set [4] came to 270 ± 20 µM; in data set [5] it was 330 ± 30 µM; in data set [6] it was 21 ± 1.3 µM; in [7], 89 ± 13 µM.

On to “Ca. Poseidonales archaeon SpeD homolog (DAC51064) (Candidatus Poseidoniales archaeon)”, for which, in the data set on N=C(N)NCCC[C@H](N)C(=O)O, the Km amounted to 2800 ± 500 µM; the kcat (as a rule, the maximal rate divided by the concentration of active sites) was 0.48 ± 0.042 s⁻¹; the kcat/Km (usually the turnover number divided by the Michaelis constant) worked out at 180 ± 19 M⁻¹ s⁻¹.

On to “Nannochloropsis gaditana SpeD homolog (XP_005856029) (Microchloropsis gaditana)”, for which, in the data set with N=C(N)NCCC[C@H](N)C(=O)O, the Km worked out at 1300 ± 100 µM, the kcat stood at 0.049 ± 0.003 s⁻¹ and the kcat/Km was determined as 39 ± 0.3 M⁻¹ s⁻¹.

B1: Ca. Velamenicoccus archaeovorus LiM SpeD homolog (WP_128700171) (Candidatus Velamenicoccus archaeovorus) (protein)
chain: MPKNVTMPAGSFGLEVVLDLYGCDPQTIRSAKKLSEFTTKLCKLLKMKKYGKTLLPHFGYDKAHTAGYSMLQFIETSSITGHFSELWNSAYINIFSCREFDAHKAADFTVKFFGARKATRRVLLRK
Regarding B1, in the data set “purified protein”, the Km is 73 ± 3.2 µM, the kcat was determined as 0.008 s⁻¹ and the kcat/Km came to 113 M⁻¹ s⁻¹.

B2: Capsulimonas corticalis SpeD homolog (WP_119321511) (Capsulimonas corticalis) (protein)
chain: MKNHTTYGAHLTLRIANIERRHALQGPHGVSDLLVDLIDRIGMRILAGPLTAEETGDPERRGWSSVAILYESHCAIHTYPELGEAFLDVFSCKTFPIAAITTLLTERFGEFAIVEQSLTDRGIHWGPNVEKELASWVLTRSEK
notes: self-processed pyruvoyl enzyme
As to B2, in data set [8], the Km is 370 ± 50 µM, the kcat is 0.08 ± 0.003 s⁻¹ and the kcat/Km amounted to 220 ± 36 M⁻¹ s⁻¹.

B3: Tribonema minus SpeD homolog (KAG5182568) (Tribonema minus) (protein)
chain: MRVPIQRTTVPQSSPLIRAHGSHIMLDFTEWWMPPEEGAEAVMELVRAALREEGVREVHHKAVVLGTRGESPPGFTAVVLIDESHVTAHCYADRGWLALDVFTCGGASTARVAAAIEAGVRRLSPRAVLQQRASAPRFVHRVD
notes: as for B2
Take B3: in data set [9], the Km was determined as 720 ± 110 µM, the kcat was 0.08 ± 0.004 s⁻¹ and the kcat/Km stood at 110 ± 10 M⁻¹ s⁻¹.

B4: Methanospirillum hungatei JF-1 SpeD2 (WP_011448617) (Methanospirillum hungatei JF-1) (protein)
chain: MIDTLVPTREGIATAPAKSDQEIMEEFKSRNAWGLYTSVDLKNCNPETIRDAGKIREFVIQLCDLIKMKRFGEPQIINFGPCERVAGYSMTQLIETSLIGAHFANETNAAYIDIFSCKEYAPQLTAEFCREFFGADKVTVHIAFRD
Take B4: in the data set “purified protein”, the Km came to 230 ± 18 µM, the kcat was determined as 0.05 s⁻¹ and the kcat/Km is 220 M⁻¹ s⁻¹.
